Measurements published in patent publication US20160194408A1 (published 2016).
Where two headings read alike, the source gives them in different places.

How the values were obtained:
[1] = target: T1, human Proprotein Convertase Subtilisin-like/Kexin type 9 (UniProt Q8NBP7 31-692); assay: ELISA
cynomolgus monkey PCSK9 = target: T2, cynomolgus monkey PCSK9 (cynomolgus monkey, UniProt A0A7N9D9N8 150-747); assay: ELISA
T2 chain: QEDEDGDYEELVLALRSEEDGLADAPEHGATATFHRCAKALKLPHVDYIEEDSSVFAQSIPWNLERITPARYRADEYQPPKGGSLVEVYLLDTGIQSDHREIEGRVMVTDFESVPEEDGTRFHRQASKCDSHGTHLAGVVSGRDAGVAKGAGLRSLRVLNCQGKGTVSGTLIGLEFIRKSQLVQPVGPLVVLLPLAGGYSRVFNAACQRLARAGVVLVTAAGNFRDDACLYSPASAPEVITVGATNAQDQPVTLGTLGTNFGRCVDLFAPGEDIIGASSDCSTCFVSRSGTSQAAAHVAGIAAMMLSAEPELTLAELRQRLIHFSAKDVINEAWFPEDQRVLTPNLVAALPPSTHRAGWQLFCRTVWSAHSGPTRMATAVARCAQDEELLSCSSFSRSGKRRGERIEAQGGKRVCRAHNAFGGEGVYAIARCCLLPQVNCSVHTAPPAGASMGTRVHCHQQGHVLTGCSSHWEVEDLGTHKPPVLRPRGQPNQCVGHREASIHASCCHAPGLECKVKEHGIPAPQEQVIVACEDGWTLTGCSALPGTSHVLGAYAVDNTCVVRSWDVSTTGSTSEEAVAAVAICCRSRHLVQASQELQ

[2] = target: T1, human Proprotein Convertase …; assay: ELISA; remark: listed apart in the source
[3] = target: T1, human Proprotein Convertase …; assay: ELISA; remark: listed apart in the source
Target sequence in this assay (Q8NBP7 31-692): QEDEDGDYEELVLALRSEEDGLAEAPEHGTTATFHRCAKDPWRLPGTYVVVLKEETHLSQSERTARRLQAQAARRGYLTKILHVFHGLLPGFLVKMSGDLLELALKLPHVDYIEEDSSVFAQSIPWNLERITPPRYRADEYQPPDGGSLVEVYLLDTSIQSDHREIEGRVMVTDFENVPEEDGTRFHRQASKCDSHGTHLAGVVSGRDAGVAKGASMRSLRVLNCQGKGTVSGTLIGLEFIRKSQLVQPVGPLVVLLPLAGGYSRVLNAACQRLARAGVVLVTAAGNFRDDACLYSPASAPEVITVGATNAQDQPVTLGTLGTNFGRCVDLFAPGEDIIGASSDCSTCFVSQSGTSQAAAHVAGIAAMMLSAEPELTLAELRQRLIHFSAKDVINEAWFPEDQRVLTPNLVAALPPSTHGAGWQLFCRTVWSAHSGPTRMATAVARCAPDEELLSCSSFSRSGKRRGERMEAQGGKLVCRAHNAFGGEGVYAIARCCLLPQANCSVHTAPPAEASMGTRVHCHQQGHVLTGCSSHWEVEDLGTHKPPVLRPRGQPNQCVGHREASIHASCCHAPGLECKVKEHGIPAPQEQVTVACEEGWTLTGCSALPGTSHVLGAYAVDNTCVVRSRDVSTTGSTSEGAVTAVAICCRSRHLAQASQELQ

[4] = target: T1, human Proprotein Convertase …; assay: PCSK9-LDLR blocking ELISA
[5] = target: T1, human Proprotein Convertase …; assay: PCSK9-LDLR blocking ELISA; remark: listed apart in the source

B1: Ab17 (antibody, V domains shown)
VH: QEQLEESGGDLVKPEGSLTLTCTASGFSFSSSYWICWVRQAPGKGLEWIGCIRPGSADYYASWAKGRFTISRASSSTVTLQMTSLTAADTATYFCASDINDGWLGQFNLWGPGTLVTVSS
VL: DVVMTQTPASVEAAVGGTVTIKCQASLSIADYLAWYLQKPGQPPKLLIYRASTLASGVPSRFKGSGSGTEYTLTISDLECADAATYYCQSYYSVTTNTYGNTFGGGTEVVVKR
Binder B1 has an EC50 [1] of 0.301 nM and an EC50 (cynomolgus monkey PCSK9) of 0.278 nM.

B2: Ab16 (antibody, V domains shown)
VH: QEQLVESGGGLVQPEGSLTLTCTASGFSFSSDYWICWVRQAPGKGLEWIGCIRDGGGSYYANWAKGRLTISMTSSTTVGLKMTSLTAADTATYFCASDINDGWLGQFNLWGPGTLVTVSS
VL: DIVMTQTPASVEAAVGGTVTIKCQASQSISSYLAWYQQKPGQPPKLLIYRASTLASGVPSRFSGSGSGTEFTLTISDLECADAATYYCQSYYSVTTVTYGNTFGGGTEVVVKR
B2 showed an EC50 [1] of 0.286 nM and an EC50 (cynomolgus monkey PCSK9) of 0.31 nM.

B3: Ab19 (antibody, V domains shown)
VH: EVQLVESGGGLVQPGGSLRLSCAASGIDLSSYAMGWVRQAPGKGLEYIGIIVSYGPTYYASWAKGRFTISRDNSKNTVYLQMNSLRAEDTATYFCARDLDAQSSGYYGAFNIWGQGTLVTVSS
VL: DIQMTQSPSTLSASVGDRVTITCQASQSISTALAWYQQKPGKAPKLLIYAASPLASGVPSRFSGSGSGTEFTLTISSLQPDDFATYYCQSYYGSSNIAFGGGTKVEIKR
With B3 the EC50 [2] was 0.943 nM.

B4: Ab2 (antibody, V domains shown)
VH: QSVEESGGRLVTPGTPLTLTCTVSGFSLSSYAMSWVRQAPGKGLEWIGIIDAIDNTYYASWAKGRFTISKTSTTVDLKMTSLTTGDTATYFCARASILGYSIATGFNIWGPGTLVTVSS
VL: AYDMTQTPASVEVAVGGTVTIKCQASQSISSHLAWYQQKSGQPPKLLIYRASTLESGVSSRFKGSGSGTEFTLTISDLECADAATYYCQQGYGVSDVDNGFGGGTEVVVKR
Binder B4 has an EC50 [3] of 0.0936 nM.

B5: Ab22 (antibody, V domains shown)
VH: EVQLVESGGGLVQPGGSLRLSCAASGFSLSSYAMNWVRQAPGKGLEWIGAIRSSGATFFASSVNGRFTISRDNSKNTVYLQMNSLRAEDTAVYYCARDTNDGWYINRLDLWGQGTLVTVSS
VL: AVLTQSPSTLSASVGDRVTITCQSSKSVYSNYLSWFQQKPGKAPKFLIYKASTLASGVPSRFSGSGSGTEFTLTISSLQPDDFATYYCAGGDTNIADNAFGGGTKVEIKR
For B5, the IC50 [4] was 3.3 nM.

B6: Ab1 (antibody, V domains shown)
VH: QSVEESGGRLVTPGTPLTLTCTVSGFSLSSYWMTWVRQAPGKGLEYIGIISSSGSTYYATWAKGRFTISKTSSTTVDLEITSPTTEDTATYFCARDSAFSSGLEFNIWGPGTLVTVSS
VL: AYDLTQTPASVEVAVGGTVTIKCQASQSVYSNWLSWYQQKPGQPPKLLIYDASDLASGVPSRFKGSGSGTQFTLTISGVQCDDAATYYCQQGQSSSDIDNTFGGGTEVVVKR
B6 showed an EC50 [3] of 0.117 nM.

B7: Ab4 (antibody, V domains shown)
VH: QSVEESGGRLVTPGTPLTLTCTVSGIDLSSYAMIWVRQAPEKGLEYIGYIGGIDSTYYASWAKGRFTISKTSTTVDLKMTSPTTEDTATYFCGRWSGTSGYNTIWGPGTLVTVSS
VL: DVVMTQTPASVEAAVGGTVTIKCQASQSIYSNLAWYQQKPGQPPKLLIYGASNLASGVSSRFKGSRSGTEYTLTISDLECADAATYYCQCTGGGDSGNTFGGGTEVVVKR
Binder B7 has an EC50 [3] of 0.0843 nM.

B8: Ab9 (antibody, V domains shown)
VH: QSVEESGGRLVTPGTPLTLTCTVSGIDLSSYAMGWVRQAPGKGLEYIGIIVSYGPTYYASWAKGRFTISKTSTTVDLKITSPTAEDTATYFCARDLDANSSGYYGCFNIWGQGTLVTVSS
VL: AVVLTQTPASVSAAVGGTVTIKCQASQSISTALAWYQQKPGQPPKLLIYAASPLASGVSSRFKSSGSGTEFTLTISDLECADAATYYCQSYYGSSNIAFGGGTELEILR
Work on B8 yielded an IC50 [5] of 1.59 nM.

B9: Ab3 (antibody, V domains shown)
VH: QSVEESGGRLVTPGGSLTLTCTASGFSLSSYYMSWVRQAPGKGLEWIGIIYPSGSTYYASWAKGRFTISKTSTTVDLKITSPTVEDTATYFCARGGAYATLNLWGPGTLVTVSS
VL: AVLTQTPSPVSAAVGGTVTISCQSSQSVYHNNLLSWYQQKPGQPPKLLIYDASKLTSGVSSRFSGSGSGTQFTLTISGVQCDDAATYYCLGGYDDDADNGFGGGTEVVVKR
Binder B9 has an EC50 [3] of 0.105 nM.
